Measurements reported in publication PMC4440519, “Cloning and characterization of farnesyl pyrophosphate synthase from the highly branched isoprenoid producing diatom Rhizosolenia setigera” (Scientific Reports, 2015).

Columns and labels:
[1] = substrate: CC(C)=CCC/C(C)=C/COP(=O)(O)OP(=O)(O)O; experiment: LC/MS quantification of FPP formed; format: biochemical, Sundstroemia setigera; details: IPP 50 μM constant, 35 mM Tris-HCl pH 7.5, 10 mM MgCl2, 4 mM DTT, 30 °C
[2] = substrate: CC(C)=CCOP(=O)(O)OP(=O)(O)O; experiment: LC/MS quantification of FPP formed; format: biochemical, Sundstroemia setigera; details: IPP 50 μM constant, 35 mM Tris-HCl pH 7.5, 10 mM MgCl2, 4 mM DTT, 30 °C
[3] = substrate: C=C(C)CCO[P@@](=O)(O)OP(=O)(O)O; experiment: purified protein; details: DMAPP 50 μM constant, 35 mM Tris-HCl pH 7.5, 10 mM MgCl2, 4 mM DTT, 30 °C

B1: RsFPPS (Sundstroemia setigera) (protein)
chain: VSSLPPIIAGAAIYRLVSSKTLPDLTSAFFELEIPDQISLLSLLFASVFSAVSISGFIAPPGHNDDDDEDEHKPPFQYPLKEIASKTTDKEKFLSVYPCLRDSIAEYFATKHEMVPEGVNWITEMIDYSCVGGKMNRGITVLTVARTLSGSSGLTPREEARASVVGWGIEFLQAFFLVADDLMDDSKTRRGQPCWYLLPKVGTIAVNDSFLLESFVFTFLKEHFGKEPYYIKLVELFLETIQQTECGQLLDLTSQPKDAKTADLSRFTIERYRKIVKYKTAFYSFYLPVASAMLMSGVTNSKSFKTARNICCIMGEYFQIQDDVLDCYGTPEVIGKVGTDIQDNKCSWLIVQALDRATPEQRKVIEENYGKWDDAKVAKIKAIYNEMGLKSVFEKYEEDSYAEIQEELKKINDIPQEVFTLFLDKIYKRSK
notes: kcat calculated for dimer
[1]
  Km: 63.0 ± 7.5 µM
  kcat: 43.5 ± 2.228 s⁻¹
[2]
  Km: 10.6 ± 2.3 µM
  kcat: 5.73 ± 0.3038 s⁻¹
[3]
  Km: 21.5 ± 6.7 µM
  kcat: 6.192 ± 0.5738 s⁻¹
